Data published in US20060094649A1.

Legend:
[1] = molecular target: HLA-B*4001 (human); assay: competition with labeled probe peptide, purified HLA class I
[2] = molecular target: HLA-B*4403 (human); assay: as above

IC50 [1]: 10.4 µM | IC50 [2]: 2.01 µM
Substance: SEQ ID NO 717, 7-mer of MAGE2 at position 234 (printed as WEELSML) (peptide)
